Measurements: US20210395393A1 (published 2021)
Each block holds one binder with its values, some of them ahead of it.

Tests used:
[1] = target: T1, recombinant human tPA (rh-tPA: abcam ab92637) (UniProt P00750 36-562); assay: ELISA; Plate 1, human serum, 37°C
[2] = target: T1, recombinant human tPA (rh-tPA: abcam …); assay: ELISA
[3] = target: T1, recombinant human tPA (rh-tPA: abcam …); assay: ELISA; Plate 2, mouse serum, 37°C
[4] = target: T1, recombinant human tPA (rh-tPA: abcam …); assay: ELISA; Plate 2, cynomolgus serum, 37°C
[5] = target: T1, recombinant human tPA (rh-tPA: abcam …); assay: ELISA; remark: listed apart in the source
[6] = target: T1, recombinant human tPA (rh-tPA: abcam …); assay: ELISA; Plate 1, PBS, 4°C
[7] = target: T1, recombinant human tPA (rh-tPA: abcam …); assay: ELISA; Plate 2, PBS, 4°C
[8] = target: T1, recombinant human tPA (rh-tPA: abcam …); assay: ELISA; Plate 1, PBS, 4°C; remark: listed apart in the source
[9] = target: T1, recombinant human tPA (rh-tPA: abcam …); assay: ELISA; Plate 2, cynomolgus serum, 37°C; remark: listed apart in the source
[10] = target: T1, recombinant human tPA (rh-tPA: abcam …); assay: ELISA; Plate 1, human serum, 37°C; remark: listed apart in the source
[11] = target: T1, recombinant human tPA (rh-tPA: abcam …); assay: ELISA; Plate 2, mouse serum, 37°C; remark: listed apart in the source
[12] = target: T1, recombinant human tPA (rh-tPA: abcam …); assay: ELISA; Plate 2, PBS, 4°C; remark: listed apart in the source
[13] = target: T1, recombinant human tPA (rh-tPA: abcam …); assay: ELISA; Plate 1, PBS, 37°C
[14] = target: T1, recombinant human tPA (rh-tPA: abcam …); assay: ELISA; Plate 1, PBS, 4°C; remark: listed apart in the source
[15] = target: T1, recombinant human tPA (rh-tPA: abcam …); assay: ELISA; Plate 1, human serum, 37°C; remark: listed apart in the source
[16] = target: T1, recombinant human tPA (rh-tPA: abcam …); assay: ELISA; Plate 2, PBS, 4°C; remark: listed apart in the source
[17] = target: T1, recombinant human tPA (rh-tPA: abcam …); assay: ELISA; Plate 2, mouse serum, 37°C; remark: listed apart in the source
[18] = target: T1, recombinant human tPA (rh-tPA: abcam …); assay: ELISA; Plate 1, PBS, 37°C; remark: listed apart in the source
[19] = target: T1, recombinant human tPA (rh-tPA: abcam …); assay: ELISA; purified Fab

T1 sequence (P00750 36-562): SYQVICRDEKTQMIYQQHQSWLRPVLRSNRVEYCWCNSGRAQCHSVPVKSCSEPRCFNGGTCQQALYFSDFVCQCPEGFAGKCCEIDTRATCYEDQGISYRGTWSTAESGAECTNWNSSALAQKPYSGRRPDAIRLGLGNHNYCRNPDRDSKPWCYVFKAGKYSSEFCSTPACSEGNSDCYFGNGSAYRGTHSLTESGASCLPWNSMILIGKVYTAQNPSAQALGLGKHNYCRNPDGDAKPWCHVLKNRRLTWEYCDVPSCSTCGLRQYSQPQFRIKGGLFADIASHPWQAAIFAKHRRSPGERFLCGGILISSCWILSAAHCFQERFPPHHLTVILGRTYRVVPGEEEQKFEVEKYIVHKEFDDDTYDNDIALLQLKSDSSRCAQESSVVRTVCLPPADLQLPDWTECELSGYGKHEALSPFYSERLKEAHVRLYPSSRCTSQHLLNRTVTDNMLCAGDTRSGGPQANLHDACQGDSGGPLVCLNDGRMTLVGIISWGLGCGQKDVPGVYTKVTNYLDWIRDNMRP

EC50 [1]: 0.404 nM
IC50 [2]: 0.316 nM
EC50 [3]: 0.403 nM
EC50 [4]: 0.514 nM
IC50 [5]: 0.365 nM
EC50 [6]: 0.229 nM
EC50 [7]: 0.304 nM
B1: TPAi-1 RHP/RKA (antibody, V domains shown)
VH: QVQLVQSGAEVKKPGASVKVSCKASGNTSYWINWVRQATGQGLEWMGRIDPGGGSTGYAQKFQGRVTMTRDTSISTAYMELSSLRSEDTAVYYCASYYYAMAYWGQGTLVTVSS
VL: DVVMTQSPLSLPVTPGEPASISCRSSQSIVHSNGNTYLDWYLQKPGQSPQLLIYKVSNRASGVPDRFSGSGSGTDFTLKISRVEAEDVGVYYCFQGSHVPWTFGGGTKVEIK

EC50 [8]: 0.596 nM
EC50 [9]: 0.717 nM
EC50 [10]: 0.647 nM
EC50 [11]: 0.694 nM
EC50 [12]: 0.51 nM
EC50 [13]: 0.972 nM
B2: TPAi-1 RHE/RKA (antibody, V domains shown)
VH: QVQLVQSGAEVKKPGASVKVSCKASGNTSYWINWVRQATGQGLEWMGRIDPGGGSTGYAQKFQGRVTMTRNTSISTAYMELSSLRSEDTAVYYCASYYYAMAYWGQGTLVTVSS
VL: DVVMTQSPLSLPVTPGEPASISCRSSQSIVHSNGNTYLDWYLQKPGQSPQLLIYKVSNRASGVPDRFSGSGSGTDFTLKISRVEAEDVGVYYCFQGSHVPWTFGGGTKVEIK

EC50 [14]: 1.45 nM
EC50 [15]: 0.978 nM
EC50 [16]: 1.75 nM
EC50 [17]: 0.966 nM
EC50 [18]: 2.16 nM
IC50 [19]: 1.62 nM
B3: TPAi-1 RHP/RKA Fab (Fab, V domains shown)
VH: QVQLVQSGAEVKKPGASVKVSCKASGNTSYWINWVRQATGQGLEWMGRIDPGGGSTGYAQKFQGRVTMTRDTSISTAYMELSSLRSEDTAVYYCASYYYAMAYWGQGTLVTVSS
VL: DVVMTQSPLSLPVTPGEPASISCRSSQSIVHSNGNTYLDWYLQKPGQSPQLLIYKVSNRASGVPDRFSGSGSGTDFTLKISRVEAEDVGVYYCFQGSHVPWTFGGGTKVEIK
